Numbered stars: 1 amine (or outer) side, 2 acyl side, 3 side chain; on linkers, the order of the positions; unused ones are H or OH. Square brackets hold non-standard residues; d marks the D form. Side chains are listed from the residue outwards. * marks the point of attachment. C20 diacid = O=C(O)CCCCCCCCCCCCCCCCCCC(=O)*; C18 diacid = O=C(O)CCCCCCCCCCCCCCCCC(=O)*; C16 diacid = O=C(O)CCCCCCCCCCCCCCC(=O)*; γGlu = O=C(O)[C@H](CCC(=O)[*:2])N[*:1]; Chem. 28 = not defined here; AEEA = NCCOCCOCC(=O)O; Aib = CC(C)(N)C(=O)O
T1: human GIP receptor (human, UniProt P48546 22-466)
T1 sequence (looked up): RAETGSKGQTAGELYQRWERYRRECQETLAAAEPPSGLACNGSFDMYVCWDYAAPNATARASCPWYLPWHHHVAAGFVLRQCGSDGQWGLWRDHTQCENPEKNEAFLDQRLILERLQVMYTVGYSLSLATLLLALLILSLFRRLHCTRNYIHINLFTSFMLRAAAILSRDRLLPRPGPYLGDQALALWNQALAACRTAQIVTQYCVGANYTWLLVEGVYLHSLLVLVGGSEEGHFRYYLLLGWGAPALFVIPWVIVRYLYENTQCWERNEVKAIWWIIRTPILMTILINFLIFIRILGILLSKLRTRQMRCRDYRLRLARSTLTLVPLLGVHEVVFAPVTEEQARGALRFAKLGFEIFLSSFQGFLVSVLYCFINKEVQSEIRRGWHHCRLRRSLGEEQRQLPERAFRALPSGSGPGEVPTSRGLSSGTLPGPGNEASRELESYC

T2: human amylin-3(a) receptor (human, UniProt P30988 25-474; O60896 24-148)
T2 sequence (looked up) 1: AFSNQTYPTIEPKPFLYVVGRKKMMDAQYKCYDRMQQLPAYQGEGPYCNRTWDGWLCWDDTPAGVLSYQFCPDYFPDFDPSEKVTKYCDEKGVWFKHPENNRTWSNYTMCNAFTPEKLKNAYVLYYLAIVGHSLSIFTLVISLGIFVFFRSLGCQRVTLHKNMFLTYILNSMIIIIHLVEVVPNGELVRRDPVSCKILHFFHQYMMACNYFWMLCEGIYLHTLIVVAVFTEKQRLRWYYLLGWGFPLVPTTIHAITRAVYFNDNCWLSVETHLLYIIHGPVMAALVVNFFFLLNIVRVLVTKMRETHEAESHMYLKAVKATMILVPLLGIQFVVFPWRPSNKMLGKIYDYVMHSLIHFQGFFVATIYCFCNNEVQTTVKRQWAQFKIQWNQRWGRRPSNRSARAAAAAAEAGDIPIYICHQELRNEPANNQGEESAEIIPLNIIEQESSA
T2 sequence (looked up) 2: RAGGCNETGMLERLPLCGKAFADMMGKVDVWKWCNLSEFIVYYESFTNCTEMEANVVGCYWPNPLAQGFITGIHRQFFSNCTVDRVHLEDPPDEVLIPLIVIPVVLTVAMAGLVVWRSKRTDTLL

B1: Compound 109 (peptide)
peptide: Y[Aib]EGTFTSDYSILLEEQAAREFIEWLLAGGPSSGAPPPSGGGEASHLSTAQTQRLSAK(Chem. 28)LHRLATLPRTETGSGSP-NH2
modifications: not fully specified; reading uncertain
B2: Compound 12 (peptide)
peptide: H[Aib]HGTFTSDYSILLEEQAAREFIEWLLAGGPSK([AEEA-AEEA-γGlu-C16 diacid])GAPPPSGGGEASELSTAALGRLSAELHELATLPRTETGSGSP-NH2
B3: Compound 16 (peptide)
peptide: H[Aib]HGTFTSDYSILLEEQAAREFIEWLLAGGPSK([AEEA-AEEA-γGlu-C20 diacid])GAPPPSGGGEASELSTAALGRLSAELHELATLPRTETGSGSP-NH2
B4: Compound 15 (peptide)
peptide: H[Aib]HGTFTSDYSILLEEQAAREFIEWLLAGGPSK([AEEA-AEEA-γGlu-C18 diacid])GAPPPSGGGEASELSTAALGRLSAELHELATLPRTETGSGSP-NH2
B5: Compound 111 (peptide)
peptide: Y[Aib]EGTFTSDYSILLEEQAAREFIEWLLAGGPSSGAGQAPGQAPGASHLSTAQTQRLSAELHRLK([AEEA-AEEA-AEEA-γGlu-C18 diacid])TLPRTETGSGSP-NH2
B6: Compound 14 (peptide)
peptide: H[Aib]HGTFTSDYSILLEEQAAREFIEWLLAGGPSK([AEEA-AEEA-γGlu-C18 diacid])GAPPPSGGGGASELSTAALGRLSAELHRLATLPRTETGSGSP-NH2
B7: Compound 110 (peptide)
peptide: Y[Aib]EGTFTSDYSILLEEQAAREFIEWLLAGGPSSGAPPPSGGGEASHLSTAQTQRLSAK([AEEA-AEEA-γGlu-C20 diacid])LHRLATLPRTETGSGSP-NH2
modifications: not fully specified

Legend:
Assay in all cases: cell-based or functional assay
human GLP-1 receptor [1] = target: T3, human GLP-1 receptor (human, UniProt P43220 24-463)
human GIP receptor [2] = target: T1, human GIP receptor
[3] = target: T2, human amylin-3(a) receptor
human GLP-1 receptor [4] = target: T3, human GLP-1 receptor; remark: listed apart in the source
human GIP receptor [5] = target: T1, human GIP receptor; remark: listed apart in the source
[6] = target: T2, human amylin-3(a) receptor; remark: listed apart in the source

Row | Binder | hGLP-1R Potency, no HSA, EC50 [pM] (human GLP-1 receptor [1]) | hGIPR Potency, no HSA, EC50 [pM] (human GIP receptor [2]) | hAMYR3 Potency, no HSA, EC50 [pM] [3] [pM] | hGLP-1R Potency, 1% HSA, EC50 [pM] (human GLP-1 receptor [4]) | hGIPR Potency, 1% HSA, EC50 [pM] (human GIP receptor [5]) | hAMYR3 Potency, 1% HSA, EC50 [pM] [6] [pM]
1 | B1 | 68.9 | 7.42 | 3.65 | 94.7 | 17.4 | 32
2 | B2 | 0.8 | 2.62 | 6.23 | 10.2 | 59.1 | 55
3 | B3 | 2.74 | 4.27 | 5.7 | 238 | 485 | 166
4 | B4 | 1.41 | 3.2 | 5.01 | 103 | 356 | 82.2
5 | B5 | 15.9 | 3.66 | 3.33 | 34.8 | 12.2 | 66.4
6 | B6 | 2.05 | 5.84 | 2.21 | 75.9 | 254 | 33.4
7 | B7 | 107 | 8.01 | 3.27 | 169 | 29.3 | 94
